Values joined by “and” are separate entries in the source; they are usually repeats but may differ in a detail not shown here. Equal values may be shown once. Read-outs that look alike come from different tables or passages of the source.
How the values were obtained:
[1] = target: T1, CD3 antigen expressed on cells (human CD3 epsilon) (human, UniProt P07766 23-207); assay: flow cytometry on CD38(-) primary human T cells, mouse anti-human Fc-APC detection, GeoMean RL-H of singlets
T1 construct: also called cell surface CD3 antigen; CD3 on T cells

[2] = target: T2, Recombinant human CD38-his tag (human, UniProt P28907 43-300); assay: SPR (Biacore T200), 1:1 binding model; antigen not named on the sheet, taken as recombinant human CD38-his from Example 9
T2 construct: also called recombinant CD38 antigen; CD38 antigen; not shown: his tag

[3] = target: T2, Recombinant human CD38-his tag; assay: SPR (Biacore T200), 1:1 binding model; antigen not named on the sheet, taken as recombinant human CD38-his from Example 9; row printed 'BZ1 Pool2 PA', assigned to BZ1S through legends paragraph 161 and paragraph 163
[4] = target: T1, CD3 antigen expressed on cells (human …); assay: flow cytometry on CD38(-) primary human T cells, mouse anti-human Fc-APC detection, GeoMean RL-H of singlets; remark: listed apart in the source

B1: CD38 A2-3H10m1 assembled with CD3-scFv tsm #7 (bispecific antibody, human IgG1, lambda, L234A L235A)
chain: EVQLVQSGAEVKKPGASVKVSCKASGYTFISYTMHWVRQAPGQGLEWMGYINPRSGYTHYNQKLKDKATLTADKSASTAYMELSSLRSEDTAVYYCARSAYYDYDGFAYWGQGTLVTVSSGGGGSGGGGSGGGGSGGGGSDIQMTQSPSSLSASVGDRVTITCSASSSVSYMNWYQQKPGKAPKRLIYDTSKLASGVPSRFSGSGSGTDFTLTISSLQPEDFATYYCQQWSSNPPTFGGGTKVEIKGGSGGDKTHTCPPCPAPEAAGGPSVFLFPPKPKDTLMISRTPEVTCVVVDVSHEDPEVKFNWYVDGVEVHNAKTKPREEQYNSTYRVVSVLTVLHQDWLNGKEYKCKVSNKALPAPIEKTISKAKGQPREPQVYTLPPSREEMTKNQVSLSCAVKGFYPSDIAVEWESNGQPENNYKTTPPVLDSDGSFFLVSKLTVDKSRWQQGNVFSCSVMHEALHNHYTQKSLSLSPGK
heavy: QVQLVESGGGLVKPGGSLRLSCAASGFTFSDDYMSWIRQAPGKGLEWVASVSNGRPTTYYADSVRGRFTISRDNAKNSLYLQMNSLRAEDTAVYYCAREGWSGEFTDWGQGTLVTVSSASTKGPSVFPLAPSSKSTSGGTAALGCLVKDYFPEPVTVSWNSGALTSGVHTFPAVLQSSGLYSLSSVVTVPSSSLGTQTYICNVNHKPSNTKVDKRVEPKSCDKTHTCPPCPAPEAAGGPSVFLFPPKPKDTLMISRTPEVTCVVVDVSHEDPEVKFNWYVDGVEVHNAKTKPREEQYNSTYRVVSVLTVLHQDWLNGKEYKCKVSNKALPAPIEKTISKAKGQPREPQVYTLPPSREEMTKNQVSLWCLVKGFYPSDIAVEWESNGQPENNYKTTPPVLDSDGSFFLYSKLTVDKSRWQQGNVFSCSVMHEALHNHYTQKSLSLSPGK
light: not shown
notes: tsm #7 carries the wild type HuM291 VH
EC50 (read off the curve) [1]: ~0.2 ng/mL

B2: BZ1 heterodimeric antibody (bispecific antibody, human IgG1, lambda, L234A L235A)
chain: QVQLVQSGAEVKKPGASVKVSCKASGYTFISYTMHWVRQAPGQGLEWIGYINPRSGYTHYNQKLKDRATLTADKSASTAYMELSSLRSEDTAVYYCARSAYYDYDGFAYWGQGTLVTVSSGGGGSGGGGSGGGGSGGGGSDIQMTQSPSSLSASVGDRVTITCSASSSVSYMNWYQQKPGKAPKRLIYDTSKLASGVPSRFSGSGSGTDFTLTISSLQPEDFATYYCQQWSSNPPTFGGGTKVEIKGGGGSDKTHTCPPCPAPEAAGGPSVFLFPPKPKDTLMISRTPEVTCVVVDVSHEDPEVKFNWYVDGVEVHNAKTKPREEQYNSTYRVVSVLTVLHQDWLNGKEYKCKVSNKALPAPIEKTISKAKGQPREPQVYTLPPSREEMTKNQVSLSCAVKGFYPSDIAVEWESNGQPENNYKTTPPVLDSDGSFFLVSKLTVDKSRWQQGNVFSCSVMHEALHNHYTQKSLSLSPGK
heavy: QVQLVESGGGLVKPGGSLRLSCAASGFTFSDDYMSWIRQAPGKGLEWVASVSNGRPTTYYADSVRGRFTISRDNAKNSLYLQMNSLRAEDTAVYYCAREGWSGEFTDWGQGTLVTVSSASTKGPSVFPLAPSSKSTSGGTAALGCLVKDYFPEPVTVSWNSGALTSGVHTFPAVLQSSGLYSLSSVVTVPSSSLGTQTYICNVNHKPSNTKVDKRVEPKSCDKTHTCPPCPAPEAAGGPSVFLFPPKPKDTLMISRTPEVTCVVVDVSHEDPEVKFNWYVDGVEVHNAKTKPREEQYNSTYRVVSVLTVLHQDWLNGKEYKCKVSNKALPAPIEKTISKAKGQPREPQVYTLPPSREEMTKNQVSLWCLVKGFYPSDIAVEWESNGQPENNYKTTPPVLDSDGSFFLYSKLTVDKSRWQQGNVFSCSVMHEALHNHYTQKSLSLSPGK
light: not shown
notes: Isotype IgG1/LALA, knob-in-hole; also called BZ1 bispecific antibody
Kd [2]: 1.08 nM and 0.96 nM
koff [2]: 0.00213 s⁻¹ and 0.00205 s⁻¹
kon [2]: 1.97e+06 M⁻¹ s⁻¹

B3: BZ1S (bispecific antibody, human IgG1, lambda, L234A L235A)
first polypeptide (anti-CD3 scFv-Fc fusion): QVQLVQSGAEVKKPGASVKVSCKASGYTFISYTMHWVRQAPGQGLEWIGYINPRSGYTHYNQKLKDRATLTADKSASTAYMELSSLRSEDTAVYYCARSAYYDYDGFAYWGQGTLVTVSSGGGGSGGGGSGGGGSGGGGSDIQMTQSPSSLSASVGDRVTITCSASSSVSYMNWYQQKPGKAPKRLIYDTSKLASGVPSRFSGSGSGTDFTLTISSLQPEDFATYYCQQWSSNPPTFGGGTKVEIKGGGGSDKTHTCPPCPAPEAAGGPSVFLFPPKPKDTLMISRTPEVTCVVVDVSHEDPEVKFNWYVDGVEVHNAKTKPREEQYNSTYRVVSVLTVLHQDWLNGKEYKCKVSNKALPAPIEKTISKAKGQPREPQVYTLPPSREEMTKNQVSLSCAVKGFYPSDIAVEWESNGQPENNYKTTPPVLDSDGSFFLVSKLTVDKSRWQQGNVFSCSVMHEALHNHYTQKSLSLSPGK
second polypeptide (anti-CD38 heavy chain): QVQLVESGGGLVKPGGSLRLSCAASGFTFSDDYMSWIRQAPGKGLEWVASVSSGRPTTYYADSVRGRFTISRDNAKNSLYLQMNSLRAEDTAVYYCAREGWSGEFTDWGQGTLVTVSSASTKGPSVFPLAPSSKSTSGGTAALGCLVKDYFPEPVTVSWNSGALTSGVHTFPAVLQSSGLYSLSSVVTVPSSSLGTQTYICNVNHKPSNTKVDKRVEPKSCDKTHTCPPCPAPEAAGGPSVFLFPPKPKDTLMISRTPEVTCVVVDVSHEDPEVKFNWYVDGVEVHNAKTKPREEQYNSTYRVVSVLTVLHQDWLNGKEYKCKVSNKALPAPIEKTISKAKGQPREPQVYTLPPSREEMTKNQVSLWCLVKGFYPSDIAVEWESNGQPENNYKTTPPVLDSDGSFFLYSKLTVDKSRWQQGNVFSCSVMHEALHNHYTQKSLSLSPGK
third polypeptide (anti-CD38 light chain): not shown
notes: also called BZ1S heterodimeric antibody; BZ1S bispecific antibody
Kd [3]: 0.909 nM
koff [3]: 0.00194 s⁻¹
kon [3]: 2.14e+06 M⁻¹ s⁻¹

B4: Hu291 mAb (antibody, V domains shown)
VH: EVQLVQSGAEVKKPGASVKVSCKASGYTFISYTMHWVRQAPGQGLEWMGYINPRSGYTHYNQKLKDKATLTADKSASTAYMELSSLRSEDTAVYYCARSAYYDYDGFAYWGQGTLVTVSS
VL: DIQMTQSPSSLSASVGDRVTITCSASSSVSYMNWYQQKPGKAPKRLIYDTSKLASGVPSRFSGSGSGTDFTLTISSLQPEDFATYYCQQWSSNPPTFGGGTKVEIK
notes: also called Hum291 anti-CD3 mAb; HuM291 mAb
EC50 (read off the curve) [1]: ~0.008 ng/mL
EC50 (read off the curve) [4]: ~0.02 ng/mL

Source: patent US20220363758A1 (SORRENTO THERAPEUTICS, published 2022)
